Assay results from publication PMC11980593.

Biological target: hexahistidine-tagged VapD toxin from Campylobacter jejuni (VapD^Cje) (Campylobacter jejuni)
Assay: crystal structure; co-expressed and co-purified VapD-VapW complex; sitting drop at 20°C, 20% PEG 1000, 100 mM sodium phosphate dibasic/citric acid pH 4.2, 200 mM lithium sulfate; space group C 2 2 21; 1.95 Å

strep-tagged VapW antitoxin from Campylobacter jejuni (VapW^Cje) (natural protein)
stoichiometry N (VapD per VapW (2:2)): 1
